Experimental data as given in US8709811B2, “Materials and methods for synthesis of a flavor and aroma volatile in plants” (University of Florida Research Foundation, Inc., priority 2003, dated 2014).
Entries after “also recorded” stand apart in the source; their conditions may differ.

Experiments:
[1] = test system: phenylalanine; assay: Phenylalanine decarboxylase expression in E. coli: phenethylamine production in media containing phenylalanine, GC; type: cell-based; conditions: grown in the presence of phenylalanine, confirmed by GC-MS
Text: The full-length aromatic amino acid decarboxylase cDNAs were cloned by sequencing putative clones from the TIGR database. Following sequence analysis the full-length coding sequence was obtained by PCR, and cloned into vector pENTR/D-TOPO. The coding region was then cloned into vector pDEST15 containing a GST tag (Invitrogen) by recombination, and transformed into E. coli strain […] (Invitrogen) for inducible protein expression. Production of the recombinant protein was confirmed by protein blotting with anti-GST antibodies. Enzyme activity was determined by growing E. coli strains expressing the aromatic amino acid decarboxylases in media containing 19.4 mM phenylalanine. Volatile compounds were extracted from the cultures using an equal volume of hexanes. Extracts were concentrated and analyzed by gas chromatography on an Agilent DB-5 column on an Agilent 6890N gas chromatograph. Identification of phenethylamine was confirmed by GC-mass spectrometry as described by Schmelz et al. (2001).
The coding regions of the full-length aromatic amino acid decarboxylases were cloned in vector pDEST15 with a GST tag and transformed into E. coli BL21-SI cells for inducible expression. The production of recombinant proteins in E. coli was confirmed by Western blotting with an anti-GST antibody. […] Volatile compounds were extracted from these cultures and analyzed by gas chromatography. […]

[2] = In vitro phenylethanol dehydrogenase activity of E. coli expressed petunia homolog; type: biochemical; conditions: E. coli expressed protein
Text: FIGS. 14A-14B show the nucleotide (SEQ ID NO: 10) and amino acid sequence (SEQ ID NO: 11) of a petunia homolog of the tomato phenylethanol dehydrogenase.

B1: cLEC73K23: tomato phenylalanine decarboxylase cLEC73K23, SEQ ID NO: 7, encoded by SEQ ID NO: 6 (protein, listed as Lycopersicon esculentum)
chain: MGSLSLEMDFEPSPMTPRSLAAMTPRSLARRRLFPNVDNKKQKMAQPGAGPRKNLELEVMEPALKNDGPSLDTILVNYLDTLTQRVNYHLGYPVNICYDHYATLAPLLQFHLNNCGDPFLQNTVDFHSKDFEVAVLNWFAKLWEIEKDQYWGYVTNGGTEGNLHGILLGRELLPEGILYASKDSHYSVFKAARMYRMDSETINTSVNGEMDYSDLRAKLLQNKDKPAIINVTIGTTFKGAIDDLDVILEILKECGYSQDRFYIHCDAALCGLMTPFINNMISFKKPIGSVTISGHKFLGCPMPCGVQITRKSYINNLSTNVEYIASVDATISGSRNGLTPIFLWYSLSAKGQVGLQKDVKRCLDNAKYLKDRLQQAGISVMLNELSIIVVLERPRDHEFVRRWQLSCVKDMAHVIVMPGITREMLDNFMSELVQQRKVWYQNGKTDPPCVGEDIGAQNCACSYHKIDYICP
[1]
  Production of phenethylamine by E. coli cultures expressing the decarboxylase: produced a compound with the same retention time as phenethylamine; also recorded: produce phenethylamine

B2: cLEC75E21: tomato phenylalanine decarboxylase cLEC75E21, SEQ ID NO: 5, encoded by SEQ ID NO: 4 (protein, listed as Lycopersicon esculentum)
chain: MGSLSFEKDFEPSAITPRGLAPPGLIVNGDFGEMMRLKVSSTPTTPRKNLNLSVTEPGKNDGPSLDCTLMNYIDTLTQRINYHIGYPVNICYEHYANLAPLLQFHLNNCGDPFLQNTVDFHSKDFEVAVLNWFADLWEIERDQYWGYVTNGGTEGNLHGILVGRELFPDGILYASKDSHYSVAKAAMMYRMDFENINASINGEIDYSDLKVKLLQNKGKPAIINVTIGTTFKGAVDDLDVILQILEECGYTRDQFYIHCDAALNGLIIPFIKNMITFKKPIGSVTISGHKFLGCPMPCGVQITRKSYINNLSRRVEYIASVDATISGSRNGLTPIFLWYSISAKGQIGFQKDVKRCFDNAKYLKDRLQQAGISVMLNELSIIVVLERPRDHEFVRRWQLSCVRDMAHVIVMPGITRETLDGFINDLLQQRKKWYQDGRISPPCVANDIGAQNCACSYHKIDYIIA
[1]
  Production of phenethylamine by E. coli cultures expressing the decarboxylase: produced a compound with the same retention time as phenethylamine; also recorded: produce phenethylamine

B3: petunia homolog of the tomato phenylethanol dehydrogenase: petunia 2-phenylethanol dehydrogenase, SEQ ID NO: 11, encoded by SEQ ID NO: 10 (protein, listed as Lycopersicon esculentum)
chain: MSSVAATKTVCVTGASGYIASWLVNFLLQRGYTVKASVRDPNDPKKTQHLISLGGAKERLHLFKANLLEEGSFDAVVDGCEGVFHTASPFYYSVTDPQAELLDPAVKGTLNLLGSCAKAPSVKRVVLTSSIAAVAYSGEPRTPEVVVDESWWTSPDYCREKQLWYVLSKTLAEDAAWKFVKEKGIDMVAINPAMVIGPLLQPTLNTSSAAVLNLVNGAETYPNATFGWVNVKDVANAHILAFENPSANGRYLMVERVAHYSDILKILRELYPTMRLPEKCADDNPLMQNYQVSKERAKSLGVEFTPLEESIKETVESLKEKKFFGGSSAM
[2]
  Phenylethanol dehydrogenase activity in vitro: exhibits phenylethanol dehydrogenase activity
